According to doi:10.1101/2024.05.03.592134:

Columns and labels:
[1] = target: Bxy_22780 E350G mutant (nucleophile mutant) (Bacteroides xylanisolvens); experiment: crystal structure
[2] = target: Bxy_22780 wild-type (β-1,2-galactosidase from Bacteroides xylanisolvens, GH35) (Bacteroides xylanisolvens); experiment: crystal structure

| Substance | stoichiometry N [1] | stoichiometry N [2] |
| --- | --- | --- |
| Bxy_22780 E350G mutant (nucleophile mutant) (enzyme) | 4 | – |
| Bxy_22780 wild-type (β-1,2-galactosidase from Bacteroides xylanisolvens, GH35) (enzyme) | – | 4 |
